In US20160355587A1 (CYTOMX THERAPEUTICS, published 2016):
Where a chain is given by its changes, count along the chain named.

B1: CD166-16522-2001 (antibody)
chain 1: QITLKESGPTLVKPTQTLTLTCTFSGFSLSTYGMGVGWIRQPPGKALEWLANIWWSEDKHYSPSLKSRLTITKDTSKNQVVLTMTNMDPVDTATYYCVQIDYGNDYAFTYWGQGTLVTVSS
chain 2: QGQSGQGLEGWCLHPLCLWGAGGGGSSGGSISSGLLSGRSDNHGGGSDIVMTQSPLSLPVTPGEPASISCRSSKSLLHSNGITYLYWYLQKPGQSPQLLIYQMSNLASGVPDRFSGSGSGTDFTLKISRVEAEDVGVYYCAQNLELPYTFGQGTKLEIK
B2: CD166-7614.5-2001 (antibody)
chain 1: B1 chain 1
chain 2: QGQSGQGLCHALVLSAWESCSSGGGSSGGSISSGLLSGRSDNHGGGSDIVMTQSPLSLPVTPGEPASISCRSSKSLLHSNGITYLYWYLQKPGQSPQLLIYQMSNLASGVPDRFSGSGSGTDFTLKISRVEAEDVGVYYCAQNLELPYTFGQGTKLEIK
B3: CD166-7614.10-2001 (antibody)
chain 1: B1 chain 1
chain 2: B2 chain 2 with A11P, E18A
B4: CD166-7614.7-2001 (antibody)
chain 1: B1 chain 1
chain 2: B2 chain 2 with A11P, V13A
B5: CD166-7614.9-2001 (antibody)
chain 1: B1 chain 1
chain 2: B2 chain 2 with A11P, W17A
B6: CD166-16522.17-2001 (antibody)
chain 1: B1 chain 1
chain 2: B1 chain 2 with P15A
B7: CD166-16522.15-2001 (antibody)
chain 1: B1 chain 1
chain 2: B1 chain 2 with L13A
B8: CD166-16522.16-2001 (antibody)
chain 1: B1 chain 1
chain 2: B1 chain 2 with H14A
B9: CD166-16522.14-2001 (antibody)
chain 1: B1 chain 1
chain 2: B1 chain 2 with W11A
B10: CD166-7614.13-2001 (antibody)
chain 1: B1 chain 1
chain 2: QGQSGQGHPLGGGSSGGSISSGLLSGRSDNHGGGSDIVMTQSPLSLPVTPGEPASISCRSSKSLLHSNGITYLYWYLQKPGQSPQLLIYQMSNLASGVPDRFSGSGSGTDFTLKISRVEAEDVGVYYCAQNLELPYTFGQGTKLEIK
B11: CD166-7614.12-2001 (antibody)
chain 1: B1 chain 1
chain 2: QGQSGQGHPLVLGGGSSGGSISSGLLSGRSDNHGGGSDIVMTQSPLSLPVTPGEPASISCRSSKSLLHSNGITYLYWYLQKPGQSPQLLIYQMSNLASGVPDRFSGSGSGTDFTLKISRVEAEDVGVYYCAQNLELPYTFGQGTKLEIK
B12: CD166-7614.11-2001 (antibody)
chain 1: B1 chain 1
chain 2: QGQSGQGCHPLVLSAWESCGGGSSGGSISSGLLSGRSDNHGGGSDIVMTQSPLSLPVTPGEPASISCRSSKSLLHSNGITYLYWYLQKPGQSPQLLIYQMSNLASGVPDRFSGSGSGTDFTLKISRVEAEDVGVYYCAQNLELPYTFGQGTKLEIK
B13: CD166-M9_vK3b/HcB (antibody, V domains shown)
VH: B1 chain 1
VL: DIVMTQSPLSLPVTPGEPASISCRSSQSLLHSNGITYLYWYLQKPGQSPQLLIYQMSNRASGVPDRFSSSGSGTDFTLKISRVEAEDVGVYYCAQNLELPYTFGQGTKLEIK
notes: Humanized M9
B14: CD166-M9_vK3b/HcC (antibody, V domains shown)
VH: B1 chain 1 with M84I, M87V
VL: B13 VL
notes: Humanized M9
B15: CD166-M9_vk3a/HcB (antibody, V domains shown)
VH: B1 chain 1
VL: B13 VL with S69G
notes: Humanized M9
B16: CD166-M9_vK2/HcC (antibody, V domains shown)
VH: B1 chain 1 with M84I, M87V
VL: B13 VL with Q27K, R59L
notes: Humanized M9
B17: CD166-M9_vK3a/HcC (antibody, V domains shown)
VH: B1 chain 1 with M84I, M87V
VL: B13 VL with S69G
notes: Humanized M9
B18: CD166-M9 antibody (mouse anti-CD166 Mab M9) (antibody, V domains shown)
VH: QVTLKESGPGILQPSQTLSLTCSFSGFSLSTYGMGVGWIRQPSGKGLEWLANIWWSEDKHYNSALKSRLTISKDTSNNQVFLKISSVDTADTATYYCVQIDYGNDYAFTYWGQGTLVTVSA
VL: DIVMTQAAFSNPVTLGTSASISCRSSKSLLHSNGITYLYWYLQKPGQSPQLLIYQMSNLASGVPDRFSSSGSGTDFTLRISRVEAEDVGVYYCAQNLELPYTFGGGTKLEIKR
notes: Obtained by mouse hybridoma technology; also called M9 mAb; muM9

Columns and labels:
human CD166 protein [1] = target: T1, human CD166 protein (human, UniProt Q13740 28-526, limits assumed); experiment: ELISA; relative to parental CD166 M9 vk1/HcB
T1 construct: Isolated human CD166 protein coated on ELISA plates; also called ALCAM
T1 sequence (looked up): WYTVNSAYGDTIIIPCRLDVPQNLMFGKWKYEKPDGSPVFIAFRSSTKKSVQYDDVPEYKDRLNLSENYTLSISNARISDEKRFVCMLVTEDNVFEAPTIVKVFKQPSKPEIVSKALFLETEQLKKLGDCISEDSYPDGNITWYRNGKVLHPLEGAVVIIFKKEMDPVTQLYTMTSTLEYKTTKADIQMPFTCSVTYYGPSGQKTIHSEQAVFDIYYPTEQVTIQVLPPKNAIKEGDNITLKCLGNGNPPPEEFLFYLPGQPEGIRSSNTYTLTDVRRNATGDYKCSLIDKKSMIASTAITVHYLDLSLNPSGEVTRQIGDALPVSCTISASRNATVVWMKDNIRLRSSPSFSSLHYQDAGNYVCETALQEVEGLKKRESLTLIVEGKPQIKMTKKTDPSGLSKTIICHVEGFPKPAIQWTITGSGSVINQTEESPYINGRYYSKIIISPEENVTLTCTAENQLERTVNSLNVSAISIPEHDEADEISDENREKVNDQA

human CD166 protein [2] = target: T1, human CD166 protein; experiment: ELISA, human CD166 protein coated; apparent Kd
human CD166 protein [3] = target: T1, human CD166 protein; experiment: ELISA, human CD166 protein coated, anti-human FAB-peroxidase
human CD166 protein [4] = target: T1, human CD166 protein; experiment: ELISA, human CD166 protein coated; positive control
Protocol: The antibody CD166-M9 antibody comprising VH of SEQ ID NO: 119, VL of SEQ ID NO: 120 was used a positive control, and an isotype control antibody was used a negative control.
Using a standard ELISA protocol, human CD166 protein was absorbed to ELISA plates and subsequently incubated with the indicated concentration of antibody. Bound antibody was detected with an anti-human FAB-peroxidase secondary.

| Binder | Fold Increase in Kd (human CD166 protein [1]) [fold] | Kd (human CD166 protein [2]) [nM] | binding result (human CD166 protein [3]) | binding result (human CD166 protein [4]) |
| --- | --- | --- | --- | --- |
| B1 | 95 | 424 | – | – |
| B2 | 112 | 495 | – | – |
| B3 | 154 | 685 | – | – |
| B4 | 139 | 619 | – | – |
| B5 | 120 | 534 | – | – |
| B6 | 14 | 61.6 | – | – |
| B7 | 101 | 448 | – | – |
| B8 | 11 | 47.4 | – | – |
| B9 | 95 | 422 | – | – |
| B10 | 18 | 77.7 | – | – |
| B11 | 75 | 332 | – | – |
| B12 | 123 | 544 | – | – |
| B13 | – | – | binds | – |
| B14 | – | – | binds | – |
| B15 | – | – | binds | – |
| B16 | – | – | binds | – |
| B17 | – | – | binds | – |
| B18 | – | – | – | binds |
